Test results from PMC5222517.

How the values were obtained:
[1] = molecular target: HIV-1 Env (HXB2 strain) homotrimer with N656D in gp41 (HIV-1 (HXB2 strain))
[2] = molecular target: HIV-1 Env (HXB2 strain) homotrimer with Q552R/N637K in gp41 (HIV-1 (HXB2 strain))
[3] = molecular target: HIV-1 Env (HXB2 strain) homotrimer with L544S in gp41 (HIV-1 (HXB2 strain))
[4] = molecular target: HIV-1 Env (HXB2 strain) homotrimer with V549A in gp41 (HIV-1 (HXB2 strain))

## 5-Helix, mutant version with L556A/V570A in all three N-HR segments (from UniProt P04578 543-582; P04578 625-661; P04578 543-582; P04578 625-661; P04578 543-582) (designed binder)
[1]
  fold resistance to 5H (LAVA) in inhibition of infection by pseudotyped HIV-1, N656D against wild type Env (HXB2) homotrimers: > 100 fold

## C-peptide C37-KYI (from UniProt P04578 625-661)
[2]
  IC50.1 (high potency phase, fraction f = 0.31) of C37-KYI inhibition of infection by pseudotyped HIV-1, two-site inhibition model (HOS-CXCR4+ cells): 8 nM
  IC50.2 (low potency phase, fraction 1 - f) of C37-KYI inhibition of infection by pseudotyped HIV-1, two-site inhibition model (HOS-CXCR4+ cells): 180 nM

## C-peptide T20
[3]
  fold resistance to T20 in inhibition of infection by pseudotyped HIV-1, L544S against wild type Env (HXB2) homotrimers (U87.CD4.CXCR4 cells): 30 fold
[4]
  fold resistance to T20 in inhibition of infection by pseudotyped HIV-1, V549A against wild type Env (HXB2) homotrimers (U87.CD4.CXCR4 cells): 50 fold
